Values quoted from earlier work, collected in article PMC5973875.
Like-named read-outs stand apart in the source and are kept apart here.

Key:
Protein S (Homo sapiens) [1] = target: Protein S (Homo sapiens) (UniProt P07225)
Protein S (Homo sapiens) [2] = target: Protein S (Homo sapiens) (UniProt P07225); remark: listed apart in the source

UniProt P07225, sequence (P07225 42-676): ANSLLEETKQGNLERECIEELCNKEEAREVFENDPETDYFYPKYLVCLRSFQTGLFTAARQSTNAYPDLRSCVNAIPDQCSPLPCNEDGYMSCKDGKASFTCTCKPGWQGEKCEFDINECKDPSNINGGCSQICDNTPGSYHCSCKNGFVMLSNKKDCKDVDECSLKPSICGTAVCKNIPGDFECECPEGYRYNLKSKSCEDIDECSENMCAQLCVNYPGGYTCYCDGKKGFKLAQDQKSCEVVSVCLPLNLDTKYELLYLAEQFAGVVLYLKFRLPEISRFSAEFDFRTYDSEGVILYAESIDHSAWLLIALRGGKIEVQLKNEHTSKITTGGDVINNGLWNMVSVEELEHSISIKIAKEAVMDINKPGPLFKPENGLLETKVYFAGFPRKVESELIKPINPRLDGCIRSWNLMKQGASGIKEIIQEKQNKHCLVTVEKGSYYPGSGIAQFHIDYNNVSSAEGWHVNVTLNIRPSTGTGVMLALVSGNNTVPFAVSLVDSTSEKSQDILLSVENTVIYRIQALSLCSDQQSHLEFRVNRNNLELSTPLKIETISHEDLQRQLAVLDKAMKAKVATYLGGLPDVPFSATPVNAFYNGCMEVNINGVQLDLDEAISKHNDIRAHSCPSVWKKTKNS

For C4BP (from UniProt P04003), the Kd (Protein S (Homo sapiens) [1]) is listed as 0.1 nM.
In the case of “Factor Va heavy chain (from UniProt P12259)”, the Kd (Protein S (Homo sapiens) [2]) is listed as 33 nM.
